In US20110294748A1 (Janssen / Centocor, published 2011):
Ends that are not written are not given here.

Experiments:
[1] = target: T1, soluble IGF1R (sIGF1R), extracellular domain of human insulin-like growth factor 1 receptor, carboxy-terminal … (human, UniProt P08069 31-932); assay: ELISA, serially diluted PG-peptide fusion on coated sIGF1R, one site binding fit
T1 construct: Bought from R&D Systems; GenBank NP-000866 is printed for the whole receptor; also called IFG1R
Description: Relative binding affinities of the PG-peptide fusions for sIGF1R were measured using ELISA. The Kds were determined using GraphPad Prism 4 software with a one site binding equation. 100 μl of 2 μg/ml sIGF1R(R&D Systems, Minneapolis, Minn.) in Dulbecco's Phosphate Buffer Saline (DPBS (−/−)) was coated onto a 96 well Black Maxisorp plates (Nunc, Rochester, N.Y.) overnight at 4° C. The plates were washed with TBST and the wells blocked with 200 μl/well Starting Block T20 (TBS) (Pierce, Rockford, Ill.) for 1 hr, room temperature with 300 rpm shaking. 75 μl/well of purified, serially diluted PG-peptide fusions, starting concentration 40 μM, was added into the wells and incubated for 1 h, room temperature with 300 rpm mixing; the volume was brought up to 100 μl with Starting Block T20. The plates were washed 3× with TBST and then probed with 100 μl/well Peroxidase labeled-Rabbit antibody (1:5000) (Rockland, Gilbertsville, Pa.), washed, and the signal was detected using 100 μl/well POD substrate (Roche, Indianapolis, Ind.). Chemiluminescence was detected using a Molecular Devices M5 plate reader.

[2] = target: T1, soluble IGF1R (sIGF1R), extracellular …; assay: ELISA, culture supernatant on 2 µg/ml coated sIGF1R, Attophos detection
Description: The binding of purified peptide-AP fusion proteins to sIGF1R was assessed using ELISA against immobilized sIGF1R. Briefly, bacteria transformed with each peptide-AP fusion expression vector were grown overnight and the following day the cultures were clarified by centrifugation at 4,500 rpm, 4° C. The supernatants were collected and 75 μl of each supernatant was assayed for binding to 2 μg/ml sIGF1R immobilized on ELISA plates. The bound peptides were detected using the Attophos Substrate (Roche, Indianapolis, Ind.) following the manufacturer's recommendation and read using a Molecular Devices M5 plate reader.

[3] = target: T1, soluble IGF1R (sIGF1R), extracellular …; assay: solid phase phage ELISA, phage lysate on coated sIGF1R
Description: Total of 384 individual phage lysates from the panning were tested for binding specificity towards sIGF1R in a solid phase phage ELISA. Briefly, 100 μl/well of 5 μg/ml sIGF1R (R&D Systems, Minneapolis, Minn.) was bound to Black Maxisorp Plates (Nunc, Rochester, N.Y.), 25 μl of phage lysate added, and the reaction was detected using anti-M13-HRP antibody (EMD Biosciences, Gibbstown, N.J.) and POD substrate (Roche, Indianapolis, Ind.), and the signal detected using a TEKAN plate reader. […] Positive lysates were defined as clones with a sIGF1R specific signal that was three fold above the background of the negative control. A total of 13 clones with unique peptide sequences were obtained with confirmed binding to the sIGF1R (Table 1). From these 13 clones, 3 (clones 5, 13 and 16) cross-reacted with the insulin receptor.

B1: PG-peptide fusion of clone 5 (protein G IgG domain with peptide SEQ ID NO: 1 at its C-terminus) (other)
chain: YKLILNGKTLKGETTTEAVDAATAEKVFKQYANDNGVDGEWTYDDATKTFTVTETGCDFPELCRGCHP
notes: also called PG-peptide fusion clone 5
- EC50 [1]: 750 nM

B2: peptide-Alkaline phosphatase-His6 fusion protein of clone 6 (other)
chain: AECEWPWLTLELCQSTPEMPVLENRAAQGDITTPGGARRLTGDQTAALRDSLSDKPAKNIILLIGDGMGDSEITAARNYAEGAGGFFKGIDALPLTGQYTHYALNKKTGKPDYVTDSAASATAWSTGVKTYNGALGVDIHEKDHPTILEMAKAAGLATGNVSTAELQGATPAALVAHVTSRKCYGPSATSEKCPGNALEKGGKGSITEQLLNARADVTLGGGAKTFAETATAGEWQGKTLREQAQTRGYQLVSDAASLNSVTEANQQKPLLGLFADGNMPVRWLGPKATYHGNIDKPAVTCTPNPQRNDSVPTLAQMTDKAIELLSKNEKGFFLQVEGASIDKQNHAANPCGQIGETVDLDEAVQRALEFAKKEGNTLVIVTADHAHASQIVAPDTKAPGLTQALNTKDGAVMVMSYGNSEEDSQEHTGSQLRIAAYGPHAANVVGLTDQTDLFYTMKAALGLKVPGGSGGGSGGGSGGGSGTPEMPVLENRAAQGDITTPGGARRLTGDQTAALRDSLSDKPAKNIILLIGDGMGDSEITAARNYAEGAGGFFKGIDALPLTGQYTHYALNKKTGKPDYVTDSAASATAWSTGVKTYNGALGVDIHEKDHPTILEMAKAAGLATGNVSTAELQGATPAALVAHVTSRKCYGPSATSEKCPGNALEKGGKGSITEQLLNARADVTLGGGAKTFAETATAGEWQGKTLREQAQTRGYQLVSDAASLNSVTEANQQKPLLGLFADGNMPVRWLGPKATYHGNIDKPAVTCTPNPQRNDSVPTLAQMTDKAIELLSKNEKGFFLQVEGASIDKQNHAANPCGQIGETVDLDEAVQRALEFAKKEGNTLVIVTADHAHASQIVAPDTKAPGLTQALNTKDGAVMVMSYGNSEEDSQEHTGSQLRIAAYGPHAANVVGLTDQTDLFYTMKAALGLKVPGNSHHHHHH
notes: Tested as bacterial culture supernatant; also called peptide-AP fusion clone 6
- binding result [2]: binds

B3: PG-peptide fusion of clone 7 (protein G IgG domain with peptide SEQ ID NO: 3 at its C-terminus) (other)
chain: YKLILNGKTLKGETTTEAVDAATAEKVFKQYANDNGVDGEWTYDDATKTFTVTEPFCYSGGPLPYPCTY
notes: also called PG-peptide fusion clone 7
- EC50 [1]: 1800 nM

Binder: FTCAVYSLSELDCRD (peptide, not shown: large carriers, cysteine pairing not given here; also: displayed on phage pIX, Tested as phage lysate) [phage clone 9 (peptide SEQ ID NO: 5 displayed on pIX phage)]
- binding result [3]: binds

B4: PG-peptide fusion of clone 14 (protein G IgG domain with peptide SEQ ID NO: 10 at its C-terminus) (other)
chain: YKLILNGKTLKGETTTEAVDAATAEKVFKQYANDNGVDGEWTYDDATKTFTVTEVECDTPSITFSPGLEALFWNTCSP
notes: also called PG-peptide fusion clone 14
- EC50 [1]: 850 nM

Binder: SNCPPLDMRLTELCVM (peptide, not shown: large carriers, cysteine pairing not given here; also: displayed on phage pIX, Tested as phage lysate) [phage clone 12 (peptide SEQ ID NO: 8 displayed on pIX phage)]
- binding result [3]: binds

B5: PG-peptide fusion of clone 6 (protein G IgG domain with peptide SEQ ID NO: 2 at its C-terminus) (other)
chain: YKLILNGKTLKGETTTEAVDAATAEKVFKQYANDNGVDGEWTYDDATKTFTVTEAECEWPWLTLELCQS
notes: also called PG-peptide fusion clone 6
- EC50 [1]: 1000 nM

B6: PG-peptide fusion of clone 16 (protein G IgG domain with peptide SEQ ID NO: 12 at its C-terminus) (other)
chain: YKLILNGKTLKGETTTEAVDAATAEKVFKQYANDNGVDGEWTYDDATKTFTVTEAGCPSPMPPVDPGFYSAIVQLCRE
notes: also called PG-peptide fusion clone 16
- EC50 [1]: 8200 nM

Binder: LSCYDPTLRTLYCHV (peptide, not shown: large carriers, cysteine pairing not given here; also: displayed on phage pIX, Tested as phage lysate) [phage clone 10 (peptide SEQ ID NO: 6 displayed on pIX phage)]
- binding result [3]: binds

B7: PG-peptide fusion of clone 12 (protein G IgG domain with peptide SEQ ID NO: 8 at its C-terminus) (other)
chain: YKLILNGKTLKGETTTEAVDAATAEKVFKQYANDNGVDGEWTYDDATKTFTVTESNCPPLDMRLTELCVM
notes: also called PG-peptide fusion clone 12
- EC50 [1]: 1800 nM

Binder: AGCPSPMPPVDPGFYSAIVQLCRE (peptide, not shown: large carriers, cysteine pairing not given here; also: displayed on phage pIX, Tested as phage lysate) [phage clone 16 (peptide SEQ ID NO: 12 displayed on pIX phage)]
- binding result [3]: binds

B8: PG-peptide fusion of clone 10 (protein G IgG domain with peptide SEQ ID NO: 6 at its C-terminus) (other)
chain: YKLILNGKTLKGETTTEAVDAATAEKVFKQYANDNGVDGEWTYDDATKTFTVTELSCYDPTLRTLYCHV
notes: also called PG-peptide fusion clone 10
- EC50 [1]: 4300 nM

Binder: PFCYSGGPLPYPCTY (peptide, not shown: large carriers, cysteine pairing not given here; also: displayed on phage pIX, Tested as phage lysate) [phage clone 7 (peptide SEQ ID NO: 3 displayed on pIX phage)]
- binding result [3]: binds

Binder: HTCFYPTLMPPELCFD (peptide, not shown: large carriers, cysteine pairing not given here; also: displayed on phage pIX, Tested as phage lysate) [phage clone 11 (peptide SEQ ID NO: 7 displayed on pIX phage)]
- binding result [3]: binds

Binder: TGCDFPELCRGCHP (peptide, not shown: large carriers, cysteine pairing not given here; also: displayed on phage pIX, Tested as phage lysate) [phage clone 5 (peptide SEQ ID NO: 1 displayed on pIX phage)]
- binding result [3]: binds

B9: peptide-Alkaline phosphatase-His6 fusion protein of clone 5 (other)
chain: TGCDFPELCRGCHPTPEMPVLENRAAQGDITTPGGARRLTGDQTAALRDSLSDKPAKNIILLIGDGMGDSEITAARNYAEGAGGFFKGIDALPLTGQYTHYALNKKTGKPDYVTDSAASATAWSTGVKTYNGALGVDIHEKDHPTILEMAKAAGLATGNVSTAELQGATPAALVAHVTSRKCYGPSATSEKCPGNALEKGGKGSITEQLLNARADVTLGGGAKTFAETATAGEWQGKTLREQAQTRGYQLVSDAASLNSVTEANQQKPLLGLFADGNMPVRWLGPKATYHGNIDKPAVTCTPNPQRNDSVPTLAQMTDKAIELLSKNEKGFFLQVEGASIDKQNHAANPCGQIGETVDLDEAVQRALEFAKKEGNTLVIVTADHAHASQIVAPDTKAPGLTQALNTKDGAVMVMSYGNSEEDSQEHTGSQLRIAAYGPHAANVVGLTDQTDLFYTMKAALGLKVPGGSGGGSGGGSGGGSGTPEMPVLENRAAQGDITTPGGARRLTGDQTAALRDSLSDKPAKNIILLIGDGMGDSEITAARNYAEGAGGFFKGIDALPLTGQYTHYALNKKTGKPDYVTDSAASATAWSTGVKTYNGALGVDIHEKDHPTILEMAKAAGLATGNVSTAELQGATPAALVAHVTSRKCYGPSATSEKCPGNALEKGGKGSITEQLLNARADVTLGGGAKTFAETATAGEWQGKTLREQAQTRGYQLVSDAASLNSVTEANQQKPLLGLFADGNMPVRWLGPKATYHGNIDKPAVTCTPNPQRNDSVPTLAQMTDKAIELLSKNEKGFFLQVEGASIDKQNHAANPCGQIGETVDLDEAVQRALEFAKKEGNTLVIVTADHAHASQIVAPDTKAPGLTQALNTKDGAVMVMSYGNSEEDSQEHTGSQLRIAAYGPHAANVVGLTDQTDLFYTMKAALGLKVPGNSHHHHHH
notes: Tested as bacterial culture supernatant; also called peptide-AP fusion clone 5
- binding result [2]: binds

Binder: VECDTPSITFSPGLEALFWNTCSP (peptide, not shown: large carriers, cysteine pairing not given here; also: displayed on phage pIX, Tested as phage lysate) [phage clone 14 (peptide SEQ ID NO: 10 displayed on pIX phage)]
- binding result [3]: binds

B10: PG-peptide fusion of clone 11 (protein G IgG domain with peptide SEQ ID NO: 7 at its C-terminus) (other)
chain: YKLILNGKTLKGETTTEAVDAATAEKVFKQYANDNGVDGEWTYDDATKTFTVTEHTCFYPTLMPPELCFD
notes: also called PG-peptide fusion clone 11
- EC50 [1]: 1200 nM

Binder: AECEWPWLTLELCQS (peptide, not shown: large carriers, cysteine pairing not given here; also: displayed on phage pIX, Tested as phage lysate) [phage clone 6 (peptide SEQ ID NO: 2 displayed on pIX phage)]
- binding result [3]: binds

Binder: DDIDEFLHQLHNLVNNVH (peptide, not shown: large carriers, Tested as phage lysate) [phage clone 17 (peptide SEQ ID NO: 13 displayed on pIX phage)]
- binding result [3]: binds

Binder: PVCPSFCYDQYVCPT (peptide, not shown: large carriers, cysteine pairing not given here; also: displayed on phage pIX, Tested as phage lysate) [phage clone 8 (peptide SEQ ID NO: 4 displayed on pIX phage)]
- binding result [3]: binds

B11: PG-peptide fusion of clone 9 (protein G IgG domain with peptide SEQ ID NO: 5 at its C-terminus) (other)
chain: YKLILNGKTLKGETTTEAVDAATAEKVFKQYANDNGVDGEWTYDDATKTFTVTEFTCAVYSLSELDCRD
notes: also called PG-peptide fusion clone 9
- EC50 [1]: 3500 nM

B12: PG-peptide fusion of clone 8 (protein G IgG domain with peptide SEQ ID NO: 4 at its C-terminus) (other)
chain: YKLILNGKTLKGETTTEAVDAATAEKVFKQYANDNGVDGEWTYDDATKTFTVTEPVCPSFCYDQYVCPT
notes: also called PG-peptide fusion clone 8
- EC50 [1]: 1600 nM
